Earlier results as cited in paper PMC4660202.

Biological target: IZUMO1 ECD (Mus musculus) (UniProt Q9D9J7)
Sequence of UniProt Q9D9J7 (Q9D9J7 22-319): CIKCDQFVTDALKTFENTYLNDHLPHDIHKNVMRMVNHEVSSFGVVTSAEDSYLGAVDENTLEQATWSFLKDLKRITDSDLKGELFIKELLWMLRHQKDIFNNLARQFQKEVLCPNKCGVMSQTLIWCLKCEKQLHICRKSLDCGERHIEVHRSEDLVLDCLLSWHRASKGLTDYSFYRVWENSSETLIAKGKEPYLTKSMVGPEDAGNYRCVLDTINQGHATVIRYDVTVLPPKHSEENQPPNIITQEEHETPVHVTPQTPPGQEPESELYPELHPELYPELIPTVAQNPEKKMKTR

JUNO (from UniProt Q9EQF4)
Kd: 12.3 µM
